The target of assay [1] is T1, insulin receptor substrate 2 (IRS-2) peptide on HLA-A*02:01 (human).
T1 peptide: RVA[pS]PTSGV
Put plainly: cytokine release.

In assay [2] the target is T2, desmuslin/synemin peptide on HLA-A*02:01 (human).
T2 peptide: RTF[pS]PTYGL
Briefly: cytokine release.

The target of assay [3] is T3, CDC25b (M-phase inducer phosphatase 2) peptide on HLA-A*02:01 (human).
T3 peptide: GLLG[pS]PVRA
Briefly: killing.

For assay [4], the target named is T4, β-catenin peptide on HLA-A*02:01 (human).
T4 peptide: YLD[pS]GIHSGA
Put plainly: cytokine release.

For assay [5], the target named is T1, insulin receptor substrate 2 (IRS-2) …. Briefly: killing.
The target of assay [6] is T4, β-catenin peptide on HLA-A*02:01. Put plainly: killing.

Where no end group is shown, it is not given here. [ ]: non-standard residue; d: D form. pS = N[C@@H](COP(=O)(O)O)C(=O)O

B1: IRS-2B (TCR, V domains shown)
Valpha: AQSVTQPDARVTVSEGASLQLRCKYSYSGTPYLFWYVQYPRQGLQLLLKYYSGDPVVQGVNGFEAEFIKSNSSFHLRKASVHWSDSAVYFCAVSAGSGGKLTLGAGTRLQVNL
Vbeta: EAAVTQSPRSKVAVTGGKVTLSCHQANNHDYMYWYRQDTGHGLRLIHYSYVADSTEKGDIPDGYKASRPSQENFSLILELASLSQTAVYFCASSDRDNYAEQFFGPGTRLTVL
As to B1, the binding result in assay [1] is “recognises”.

B2: DESA (TCR, V domains shown)
Valpha: AQSVTQPDARATVSEGASLRLRCKYSYSGTPYLFWYVQYPRQGLQLLLKYYSGDPVVQGVNGFEAEFSKSNSSFHLRKASVHWSDSAVYFCVLSYSNNRIFFGDGTQLVMKP
Vbeta: DSGVVQSPRHIIKEKGGRSVLTCIPISGHSNVVWYQQTLGKELKFLIQHYEKVERDKGFLPSRFSVQQFDDYHSEMNMSALELEDSAMYFCASSLGGGEVFFGKGTRLTVV
Take B2: in assay [2], the binding result is recorded as “recognises”.

B3: IRS-2A (TCR, V domains shown)
Valpha: AQSVTQPDARVTVSEGASLQLRCKYSYSGTPYLFWYVQYPRQGLQLLLKYYSGDPVVQGVNGFEAEFIKSNSSFHLRKASVHWSDSAVYFCAVSEGADRLTFGKGTQLIIQP
Vbeta: EAGVTQSPRYAVLQEGQAVSFWCDPISGHDTLYWYQQPRDQGPQLLVYFRDEAVIDNSQLPSDRFSAVRPKGTNSTLKIQSAKQGDTATYLCASSLLDSSYEQYFGPGTRLTVL
On to B3, for which the binding result in assay [3] is “no recognition”.

B4: βCATA (TCR, V domains shown)
Valpha: GQQVQQSPASLVLQEGENAELQCNFSSTATRLQWFYQHPGGRLVSLFYNPSGTKHTGRLTSTTVTNERRSSLHISSSQTTDSGTYFCAIPPGTGSKLSFGKGAKLTVSP
Vbeta: NTKITQSPRYLILGRANKSLECEQHLGHNAMYWYKQSAEKPPELMFLYNLKQLIRNETVPSRFIPECPDSSKLLLHISAVDPEDSAVYFCASSQGQKQYFGPGTRLTVL
Turning to B4, in assay [4], the binding result is recorded as “recognises”.

B5: DESB (TCR, V domains shown)
Valpha: AQSVTQPDARVTVSEGASLQLRCKYSYSGTPYLFWYAQYPRQGLQLLLKYYSGDPVVQGVNGFEAEFSKSNSSFHLRKASVHWSDSAVYFCVLRYGGNNKLTFGQGTVLSVIP
Vbeta: EAAVTQSPRSKVAVTGGKVTLSCHQTNNHDYMYWYRQDTGHGLRLIHYSYVADSTEKGDIPDGYKASRPSQENFSLILELASLSQTAVYFCASRYRDTQYFGPGTRLLVL
Turning to B5, the binding result in assay [2] is recorded as “recognises”.

B6: the CDC25b TCR (TCR, V domains shown)
Valpha: GEQVEQRPPHLSVREGDSAVIICTYTDPNSYYFFWYKQEPGAGLQLLMKVFSSTEINEGQGFTVLLNKKDQQLSLNLTAAHPGDSAVYFCAVKPGGYKVVFGSGTRLLVSP
Vbeta: EAAVTQSPRNKVAVTGGKVTLSCNQTNNHNNMYWYRQDTGHGLRLIHYSYGAGSTEKGDIPDGYKASRPSQENFSLILELATPSQTSVYFCASGGDTQYFGPGTRLLVL
Take B6: the binding result in assay [5] and in assay [6] was “no recognition” in each case.

The record behind these values is patent publication US20170029484A1 (published 2017).
